The values that follow come from PMC8748919, “Dynamics and mechanism of dimer dissociation of photoreceptor UVR8” (Nature Communications, 2022).

The data set deals with the molecule itself. Briefly: SEC; dimer/monomer state of the purified protein before UV irradiation; 150 mM NaCl, 25 mM Tris-HCl, pH 8.0.

B1: UVR8 W250 single-Trp mutant (receptor, Arabidopsis thaliana, UniProt Q9FN03 1-440, looked up)
chain: MAEDMAADEVTAPPRKVLIISAGASHSVALLSGDIVCSWGRGEDGQLGHGDAEDRPSPTQLSALDGHQIVSVTCGADHTVAYSQSGMEVYSWGWGDFGRLGHGNSSDLFTPLPIKALHGIRIKQIACGDSHCLAVTMEGEVQSWGRNQNGQLGLGDTEDSLVPQKIQAFEGIRIKMVAAGAEHTAAVTEDGDLYGWGWGRYGNLGLGDRTDRLVPERVTSTGGEKMSMVACGWRHTISVSYSGALYTYGFSKYGQLGHGDLEDHLIPHKLEALSNSFISQISGGWRHTMALTSDGKLYGWGWNKFGQVGVGNNLDQCSPVQVRFPDDQKVVQVSCGWRHTLAVTERNNVFAWGRGTNGQLGIGESVDRNFPKIIEALSVDGASGQHIESSNIDPSSGKSWVSPAERYAVVPDETGLTDGSSKGNGGDISVPQTDVKRVRI
notes: UVR8, Arabidopsis thaliana; mutant plasmid built on the wild-type plasmid; also called W250F; source: E. coli BL21-DE3, purified (Ni-Sepharose, Source-15Q)
With B1, the binding result is on record as “binds”.

B2: UVR8 D129 mutated to positive (K) (receptor, Arabidopsis thaliana, UniProt Q9FN03 1-440, looked up)
chain: MAEDMAADEVTAPPRKVLIISAGASHSVALLSGDIVCSWGRGEDGQLGHGDAEDRPSPTQLSALDGHQIVSVTCGADHTVAYSQSGMEVYSWGWGDFGRLGHGNSSDLFTPLPIKALHGIRIKQIACGKSHCLAVTMEGEVQSWGRNQNGQLGLGDTEDSLVPQKIQAFEGIRIKMVAAGAEHTAAVTEDGDLYGWGWGRYGNLGLGDRTDRLVPERVTSTGGEKMSMVACGWRHTISVSYSGALYTYGWSKYGQLGHGDLEDHLIPHKLEALSNSFISQISGGWRHTMALTSDGKLYGWGWNKFGQVGVGNNLDQCSPVQVRFPDDQKVVQVSCGWRHTLAVTERNNVFAWGRGTNGQLGIGESVDRNFPKIIEALSVDGASGQHIESSNIDPSSGKSWVSPAERYAVVPDETGLTDGSSKGNGGDISVPQTDVKRVRI
notes: UVR8, Arabidopsis thaliana; mutant plasmid built on the wild-type plasmid; also called D129K; source: E. coli BL21-DE3, purified (Ni-Sepharose, Source-15Q)
On to B2, for which the binding result is on record as “binds”.

B3: UVR8 R286 mutated to lysine (K) (receptor, Arabidopsis thaliana, UniProt Q9FN03 1-440, looked up)
chain: MAEDMAADEVTAPPRKVLIISAGASHSVALLSGDIVCSWGRGEDGQLGHGDAEDRPSPTQLSALDGHQIVSVTCGADHTVAYSQSGMEVYSWGWGDFGRLGHGNSSDLFTPLPIKALHGIRIKQIACGDSHCLAVTMEGEVQSWGRNQNGQLGLGDTEDSLVPQKIQAFEGIRIKMVAAGAEHTAAVTEDGDLYGWGWGRYGNLGLGDRTDRLVPERVTSTGGEKMSMVACGWRHTISVSYSGALYTYGWSKYGQLGHGDLEDHLIPHKLEALSNSFISQISGGWKHTMALTSDGKLYGWGWNKFGQVGVGNNLDQCSPVQVRFPDDQKVVQVSCGWRHTLAVTERNNVFAWGRGTNGQLGIGESVDRNFPKIIEALSVDGASGQHIESSNIDPSSGKSWVSPAERYAVVPDETGLTDGSSKGNGGDISVPQTDVKRVRI
notes: UVR8, Arabidopsis thaliana; mutant plasmid built on the wild-type plasmid; also called R286K; source: E. coli BL21-DE3, purified (Ni-Sepharose, Source-15Q)
As for B3, the binding result is “binds”.

B4: UVR8 W285D/W233K (receptor, Arabidopsis thaliana, UniProt Q9FN03 1-440, looked up)
chain: MAEDMAADEVTAPPRKVLIISAGASHSVALLSGDIVCSWGRGEDGQLGHGDAEDRPSPTQLSALDGHQIVSVTCGADHTVAYSQSGMEVYSWGWGDFGRLGHGNSSDLFTPLPIKALHGIRIKQIACGDSHCLAVTMEGEVQSWGRNQNGQLGLGDTEDSLVPQKIQAFEGIRIKMVAAGAEHTAAVTEDGDLYGWGWGRYGNLGLGDRTDRLVPERVTSTGGEKMSMVACGKRHTISVSYSGALYTYGWSKYGQLGHGDLEDHLIPHKLEALSNSFISQISGGDRHTMALTSDGKLYGWGWNKFGQVGVGNNLDQCSPVQVRFPDDQKVVQVSCGWRHTLAVTERNNVFAWGRGTNGQLGIGESVDRNFPKIIEALSVDGASGQHIESSNIDPSSGKSWVSPAERYAVVPDETGLTDGSSKGNGGDISVPQTDVKRVRI
notes: UVR8, Arabidopsis thaliana; mutant plasmid built on the wild-type plasmid; source: E. coli BL21-DE3, purified (Ni-Sepharose, Source-15Q)
With B4, the binding result is “binds”.

B5: UVR8 R234 mutated to neutral (Q) (receptor, Arabidopsis thaliana, UniProt Q9FN03 1-440, looked up)
chain: MAEDMAADEVTAPPRKVLIISAGASHSVALLSGDIVCSWGRGEDGQLGHGDAEDRPSPTQLSALDGHQIVSVTCGADHTVAYSQSGMEVYSWGWGDFGRLGHGNSSDLFTPLPIKALHGIRIKQIACGDSHCLAVTMEGEVQSWGRNQNGQLGLGDTEDSLVPQKIQAFEGIRIKMVAAGAEHTAAVTEDGDLYGWGWGRYGNLGLGDRTDRLVPERVTSTGGEKMSMVACGWQHTISVSYSGALYTYGWSKYGQLGHGDLEDHLIPHKLEALSNSFISQISGGWRHTMALTSDGKLYGWGWNKFGQVGVGNNLDQCSPVQVRFPDDQKVVQVSCGWRHTLAVTERNNVFAWGRGTNGQLGIGESVDRNFPKIIEALSVDGASGQHIESSNIDPSSGKSWVSPAERYAVVPDETGLTDGSSKGNGGDISVPQTDVKRVRI
notes: UVR8, Arabidopsis thaliana; mutant plasmid built on the wild-type plasmid; also called R234Q; source: E. coli BL21-DE3, purified (Ni-Sepharose, Source-15Q)
Turning to B5, the binding result is “binds”.

B6: UVR8 D129 mutated to neutral (N) (receptor, Arabidopsis thaliana, UniProt Q9FN03 1-440, looked up)
chain: MAEDMAADEVTAPPRKVLIISAGASHSVALLSGDIVCSWGRGEDGQLGHGDAEDRPSPTQLSALDGHQIVSVTCGADHTVAYSQSGMEVYSWGWGDFGRLGHGNSSDLFTPLPIKALHGIRIKQIACGNSHCLAVTMEGEVQSWGRNQNGQLGLGDTEDSLVPQKIQAFEGIRIKMVAAGAEHTAAVTEDGDLYGWGWGRYGNLGLGDRTDRLVPERVTSTGGEKMSMVACGWRHTISVSYSGALYTYGWSKYGQLGHGDLEDHLIPHKLEALSNSFISQISGGWRHTMALTSDGKLYGWGWNKFGQVGVGNNLDQCSPVQVRFPDDQKVVQVSCGWRHTLAVTERNNVFAWGRGTNGQLGIGESVDRNFPKIIEALSVDGASGQHIESSNIDPSSGKSWVSPAERYAVVPDETGLTDGSSKGNGGDISVPQTDVKRVRI
notes: UVR8, Arabidopsis thaliana; mutant plasmid built on the wild-type plasmid; also called D129N; source: E. coli BL21-DE3, purified (Ni-Sepharose, Source-15Q)
Turning to B6, the binding result was “binds”.

B7: UVR8 W302 single-Trp mutant (receptor, Arabidopsis thaliana, UniProt Q9FN03 1-440, looked up)
chain: MAEDMAADEVTAPPRKVLIISAGASHSVALLSGDIVCSWGRGEDGQLGHGDAEDRPSPTQLSALDGHQIVSVTCGADHTVAYSQSGMEVYSWGWGDFGRLGHGNSSDLFTPLPIKALHGIRIKQIACGDSHCLAVTMEGEVQSWGRNQNGQLGLGDTEDSLVPQKIQAFEGIRIKMVAAGAEHTAAVTEDGDLYGWGWGRYGNLGLGDRTDRLVPERVTSTGGEKMSMVACGWRHTISVSYSGALYTYGWSKYGQLGHGDLEDHLIPHKLEALSNSFISQISGGWRHTMALTSDGKLYGWGFNKFGQVGVGNNLDQCSPVQVRFPDDQKVVQVSCGWRHTLAVTERNNVFAWGRGTNGQLGIGESVDRNFPKIIEALSVDGASGQHIESSNIDPSSGKSWVSPAERYAVVPDETGLTDGSSKGNGGDISVPQTDVKRVRI
notes: UVR8, Arabidopsis thaliana; mutant plasmid built on the wild-type plasmid; also called W302F; source: E. coli BL21-DE3, purified (Ni-Sepharose, Source-15Q)
In the case of B7, the binding result was “binds”.

B8: UVR8 R338 mutated to lysine (K) (receptor, Arabidopsis thaliana, UniProt Q9FN03 1-440, looked up)
chain: MAEDMAADEVTAPPRKVLIISAGASHSVALLSGDIVCSWGRGEDGQLGHGDAEDRPSPTQLSALDGHQIVSVTCGADHTVAYSQSGMEVYSWGWGDFGRLGHGNSSDLFTPLPIKALHGIRIKQIACGDSHCLAVTMEGEVQSWGRNQNGQLGLGDTEDSLVPQKIQAFEGIRIKMVAAGAEHTAAVTEDGDLYGWGWGRYGNLGLGDRTDRLVPERVTSTGGEKMSMVACGWRHTISVSYSGALYTYGWSKYGQLGHGDLEDHLIPHKLEALSNSFISQISGGWRHTMALTSDGKLYGWGWNKFGQVGVGNNLDQCSPVQVRFPDDQKVVQVSCGWKHTLAVTERNNVFAWGRGTNGQLGIGESVDRNFPKIIEALSVDGASGQHIESSNIDPSSGKSWVSPAERYAVVPDETGLTDGSSKGNGGDISVPQTDVKRVRI
notes: UVR8, Arabidopsis thaliana; mutant plasmid built on the wild-type plasmid; also called R338K; source: E. coli BL21-DE3, purified (Ni-Sepharose, Source-15Q)
For B8, the binding result was “binds”.

B9: UVR8 W285K/W233D (receptor, Arabidopsis thaliana, UniProt Q9FN03 1-440, looked up)
chain: MAEDMAADEVTAPPRKVLIISAGASHSVALLSGDIVCSWGRGEDGQLGHGDAEDRPSPTQLSALDGHQIVSVTCGADHTVAYSQSGMEVYSWGWGDFGRLGHGNSSDLFTPLPIKALHGIRIKQIACGDSHCLAVTMEGEVQSWGRNQNGQLGLGDTEDSLVPQKIQAFEGIRIKMVAAGAEHTAAVTEDGDLYGWGWGRYGNLGLGDRTDRLVPERVTSTGGEKMSMVACGDRHTISVSYSGALYTYGWSKYGQLGHGDLEDHLIPHKLEALSNSFISQISGGKRHTMALTSDGKLYGWGWNKFGQVGVGNNLDQCSPVQVRFPDDQKVVQVSCGWRHTLAVTERNNVFAWGRGTNGQLGIGESVDRNFPKIIEALSVDGASGQHIESSNIDPSSGKSWVSPAERYAVVPDETGLTDGSSKGNGGDISVPQTDVKRVRI
notes: as for B4
For B9, the binding result is recorded as “binds”.

B10: UVR8 W94/337F (receptor, Arabidopsis thaliana, UniProt Q9FN03 1-440, looked up)
chain: MAEDMAADEVTAPPRKVLIISAGASHSVALLSGDIVCSWGRGEDGQLGHGDAEDRPSPTQLSALDGHQIVSVTCGADHTVAYSQSGMEVYSWGFGDFGRLGHGNSSDLFTPLPIKALHGIRIKQIACGDSHCLAVTMEGEVQSWGRNQNGQLGLGDTEDSLVPQKIQAFEGIRIKMVAAGAEHTAAVTEDGDLYGWGWGRYGNLGLGDRTDRLVPERVTSTGGEKMSMVACGWRHTISVSYSGALYTYGWSKYGQLGHGDLEDHLIPHKLEALSNSFISQISGGWRHTMALTSDGKLYGWGWNKFGQVGVGNNLDQCSPVQVRFPDDQKVVQVSCGFRHTLAVTERNNVFAWGRGTNGQLGIGESVDRNFPKIIEALSVDGASGQHIESSNIDPSSGKSWVSPAERYAVVPDETGLTDGSSKGNGGDISVPQTDVKRVRI
notes: as for B4
In the case of B10, the binding result is on record as “binds”.

B11: UVR8 W285/233/94/337G (receptor, Arabidopsis thaliana, UniProt Q9FN03 1-440, looked up)
chain: MAEDMAADEVTAPPRKVLIISAGASHSVALLSGDIVCSWGRGEDGQLGHGDAEDRPSPTQLSALDGHQIVSVTCGADHTVAYSQSGMEVYSWGGGDFGRLGHGNSSDLFTPLPIKALHGIRIKQIACGDSHCLAVTMEGEVQSWGRNQNGQLGLGDTEDSLVPQKIQAFEGIRIKMVAAGAEHTAAVTEDGDLYGWGWGRYGNLGLGDRTDRLVPERVTSTGGEKMSMVACGGRHTISVSYSGALYTYGWSKYGQLGHGDLEDHLIPHKLEALSNSFISQISGGGRHTMALTSDGKLYGWGWNKFGQVGVGNNLDQCSPVQVRFPDDQKVVQVSCGGRHTLAVTERNNVFAWGRGTNGQLGIGESVDRNFPKIIEALSVDGASGQHIESSNIDPSSGKSWVSPAERYAVVPDETGLTDGSSKGNGGDISVPQTDVKRVRI
notes: as for B4
On to B11, for which the binding result is “binds”.

B12: UVR8 W39 single-Trp mutant (receptor, Arabidopsis thaliana, UniProt Q9FN03 1-440, looked up)
chain: MAEDMAADEVTAPPRKVLIISAGASHSVALLSGDIVCSFGRGEDGQLGHGDAEDRPSPTQLSALDGHQIVSVTCGADHTVAYSQSGMEVYSWGWGDFGRLGHGNSSDLFTPLPIKALHGIRIKQIACGDSHCLAVTMEGEVQSWGRNQNGQLGLGDTEDSLVPQKIQAFEGIRIKMVAAGAEHTAAVTEDGDLYGWGWGRYGNLGLGDRTDRLVPERVTSTGGEKMSMVACGWRHTISVSYSGALYTYGWSKYGQLGHGDLEDHLIPHKLEALSNSFISQISGGWRHTMALTSDGKLYGWGWNKFGQVGVGNNLDQCSPVQVRFPDDQKVVQVSCGWRHTLAVTERNNVFAWGRGTNGQLGIGESVDRNFPKIIEALSVDGASGQHIESSNIDPSSGKSWVSPAERYAVVPDETGLTDGSSKGNGGDISVPQTDVKRVRI
notes: UVR8, Arabidopsis thaliana; mutant plasmid built on the wild-type plasmid; also called W39F; source: E. coli BL21-DE3, purified (Ni-Sepharose, Source-15Q)
Consider B12, for which the binding result was “binds”.
